In assay [1] the target is T1, cynomolgus monkey CD3 (cynomolgus monkey, UniProt Q95LI5 22-198; Q95LI8 22-171; Q95LI7 23-181).
T1 construct: whole, on cells; CD3 on purified cynomolgus monkey CD3 pan T cells; also called cyno CD3; CD3 on cyno primary T cells
Briefly: flow cytometry, cyno primary T cells. In short, it runs like this:
(§1)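 Binding reported as fold over isotype: median fluorescence intensity divided by isotype control, with ≥10 scored positive. Cells were exposed to 25 nM antibody in PBS/2% FBS, 30 min, 4 °C, before flow cytometric read-out.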

In assay [2] the target is T2, human CD3 expressed on cells (human, UniProt P07766 23-207; P04234 22-171; P09693 23-182).
T2 construct: whole, on cells; CD3 complex on Jurkat cells and on human primary T cells
Briefly: flow cytometry, 25 nM. In short, it runs like this: as §1
(In flow cytometry, cells or beads pass a laser one at a time.)

Assay [3] has as its target T2, human CD3 expressed on cells. Briefly: flow cytometry, 25 nM, Jurkat cells (human primary T cells in c4 also <10). The protocol:
Purified antibodies were confirmed to bind CD3 expressed on cells using the CytoFLEX S or LX flow cytometers (Beckman Coulter). Antibodies were diluted to 25 nM in FACS buffer (PBS+2% FBS) and were incubated with CD3-expressing cells for 30 minutes at 4° C. […] The median fluorescence intensity of the binding signal for each antibody was normalized to the isotype control to obtain a fold over isotype value. An antibody with a fold over isotype (FOI) of ≥10 was considered to be positive for binding.

The target in assay [4] is T3, cynomolgus monkey CD3 expressed on primary T cells (cynomolgus monkey, UniProt Q95LI5 22-198; Q95LI8 22-171; Q95LI7 23-181).
T3 construct: whole, on cells; CD3 complex on purified cynomolgus monkey T cells; also called cyno CD3
The assay is described as follows: flow cytometry, 25 nM, cyno primary T cells. In short, it runs like this: as §1

Positions count from the first letter of the chain named.

T1 sequence (Q95LI5 22-198, chain 1 of 3): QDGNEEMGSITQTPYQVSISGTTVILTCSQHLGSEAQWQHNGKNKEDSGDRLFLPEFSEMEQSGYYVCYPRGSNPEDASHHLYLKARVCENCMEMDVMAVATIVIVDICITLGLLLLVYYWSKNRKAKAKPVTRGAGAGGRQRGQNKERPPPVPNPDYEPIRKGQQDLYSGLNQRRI
T1 sequence (Q95LI8 22-171, chain 2 of 3): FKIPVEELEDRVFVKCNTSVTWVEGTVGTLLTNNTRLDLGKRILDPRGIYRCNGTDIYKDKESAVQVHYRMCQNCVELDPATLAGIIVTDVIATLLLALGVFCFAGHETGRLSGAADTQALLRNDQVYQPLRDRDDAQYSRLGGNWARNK
T1 sequence (Q95LI7 23-181, chain 3 of 3): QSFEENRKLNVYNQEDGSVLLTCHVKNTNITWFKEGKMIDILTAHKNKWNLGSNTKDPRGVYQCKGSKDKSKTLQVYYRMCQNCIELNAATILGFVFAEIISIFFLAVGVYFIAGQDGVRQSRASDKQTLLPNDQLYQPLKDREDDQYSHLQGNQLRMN
T3 sequence (Q95LI5 22-198, chain 1 of 3): as the sequence (Q95LI5 22-198, chain 1 of 3) above
T3 sequence (Q95LI8 22-171, chain 2 of 3): as the sequence (Q95LI8 22-171, chain 2 of 3) above
T3 sequence (Q95LI7 23-181, chain 3 of 3): as the sequence (Q95LI7 23-181, chain 3 of 3) above
T2 sequence (P07766 23-207, chain 1 of 3): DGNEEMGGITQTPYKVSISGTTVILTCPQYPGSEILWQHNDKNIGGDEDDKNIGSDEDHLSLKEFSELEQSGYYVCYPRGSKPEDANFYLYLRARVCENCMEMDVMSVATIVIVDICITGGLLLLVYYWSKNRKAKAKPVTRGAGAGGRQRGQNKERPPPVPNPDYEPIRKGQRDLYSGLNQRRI
T2 sequence (P04234 22-171, chain 2 of 3): as the sequence (Q95LI8 22-171, chain 2 of 3) above, with V5I, K15N, V20I, T32S, N33D, N34I, A64T, N74S, L83V, R141H counted along it
T2 sequence (P09693 23-182, chain 3 of 3): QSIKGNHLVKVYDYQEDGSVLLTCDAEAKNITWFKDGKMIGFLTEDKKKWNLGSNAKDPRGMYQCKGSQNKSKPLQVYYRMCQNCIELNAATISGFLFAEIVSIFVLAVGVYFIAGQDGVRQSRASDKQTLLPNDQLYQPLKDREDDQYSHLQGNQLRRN

B1: mAb 298 (antibody, V domains shown)
VH: EGQLLESGGGLVQPGGSLRLSCAASGFTFSRYAMSWIRQAPGKGLEWVSVINGSGGDKNYADSVKGRFTISRDNSKNSLYLLMNGLRVEDTAIYFCAKKFSYYYYYMDVWGKGTTVTVSS
VL: SYELTQPLSVSVALGQTARITCGGNNIGGKDVHWYQQKPGQAPVLVIYRDSNRPSGIPERFSGSNSGNTATLTISRAQAGDEADYYCQVWDSRTAVFGGGTQLTAL
notes: VH and VL only
Regarding B1, the binding result in assay [1] is “no binding (tested: FOI ≥10 = positive; 25 nM)”.

B2: mAb 293 (antibody, V domains shown)
VH: EVQLLESGGDLVQPGGSLRLSCAASGFTFSRNAVSWVRQAPGRGLEWVSTISGRGDKTNYVDSVKGRFTISRDNSKNTLYLQMNSLRAEDTAVYYCTKMFSYYYYYMDVWGKGTTVTVSS
VL: B1 VL with G29S, R93S
notes: VH and VL only
Turning to B2, the binding result in assay [1] is given as “no binding (tested: FOI ≥10 = positive; 25 nM)”.

B3: mAb 307 (antibody, V domains shown)
VH: EVHLLESGGGMVQPGGSRRLSCAASGFSFRNSAMSWVRQAPGKGLEWVSVIDGRGTTSNYADSVKGRFTISRDNSKNTLYLQMNSLRAEDTAVYYCAKKYSYYYYYMDVWGKGTTVTVSS
VL: B1 VL with G29S, Q102H
notes: VH and VL only
In the case of B3, the binding result in assay [1] was “no binding (tested: FOI ≥10 = positive; 25 nM)”.

B4: mAb 302 (antibody, V domains shown)
VH: B1 VH with K65R
VL: B1 VL
notes: VH and VL only
Turning to B4, the binding result in assay [1] is on record as “no binding (tested: FOI ≥10 = positive; 25 nM)”.

B5: mAb 308 (antibody, V domains shown)
VH: EVQLLESGGGSVQPGGSLRLSCAASGFTFSSYAMNWVRQAPGKGLEWISIISGGRRTGITYYAASVKGRFTISRDNSKNTLYLQMNSLRAEDTAVYYCAKMYNYYYYYIDVWGKGTTVTVSS
VL: B1 VL with G29S, R93N
notes: VH and VL only
Take B5: the binding result in assay [1] is “no binding (tested: FOI ≥10 = positive; 25 nM)”.

B6: mAb 313 (antibody, V domains shown)
VH: EVQLLESGGGLVQPGGSLRLSCAASGFTFSSYAMSWVRQAPGKGLEWVSAITGSGRTTYFVDSVKGRFTISRDNSKNTLYLQMNSLRAEDTAVYYCAKKFSYYYYYMDVWGKGTTVTVSS
VL: B1 VL with G29S, S92R, R93K, T94I
notes: VH and VL only
With B6, the binding result in assay [1] is “no binding (tested: FOI ≥10 = positive; 25 nM)”.

B7: mAb 309 (antibody, V domains shown)
VH: ELQLLESGGGLVQPGGSLRLSCAASGFTFSSYAMSWVRQAPGKGLEWVSVISGNGGNKNHADSVKGRFTISRDNSKNTLYLQMNSLRAEDTAVYYCAKKYSYYYYYMDVWGKGTTVTVSS
VL: B1 VL with G29S
notes: VH and VL only
Consider B7, for which, in assay [1], the binding result was “no binding (tested: FOI ≥10 = positive; 25 nM)”.

B8: mAb 317 (antibody, V domains shown)
VH: B7 VH with L2V, Y32F, G56D, N57K, H60Y
VL: B1 VL with G29S
notes: VH and VL only
For B8, in assay [1], the binding result is recorded as “no binding (tested: FOI ≥10 = positive; 25 nM)”.

B9: mAb 299 (antibody, V domains shown)
VH: B7 VH with L2V, L18R, S30R, G53I, N54R, G56D, N57S, K58T, N59S, H60Y
VL: B1 VL with G29S
notes: VH and VL only
Turning to B9, the binding result in assay [1] was “no binding (tested: FOI ≥10 = positive; 25 nM)”.

B10: mAb 315 (antibody, V domains shown)
VH: B7 VH with L2V, L18R, S52N, G53T, N54R, G56D, N57S, K58T, N59S, H60Y
VL: B1 VL with G29S
notes: VH and VL only
Turning to B10, in assay [1], the binding result is reported as “no binding (tested: FOI ≥10 = positive; 25 nM)”.

B11: mAb 305 (antibody, V domains shown)
VH: B7 VH with L2V, T28S, Y32F, M34L, H60Y
VL: B1 VL with T94A
notes: VH and VL only
In the case of B11, the binding result in assay [1] is “no binding (tested: FOI ≥10 = positive; 25 nM)”.

B12: mAb 63 (antibody, V domains shown)
VH: QVQLVQSGAEVRKPGASVKVSCKASGYTFTGNHMHWVRQAPGQGLEWMGWINPKSGRTNFAQNFQGRVTMTRDTSISTAFMELSRLRSDDTAVYYCARMGDLLLFDFWGQGTLVTVSS
VL: not shown
As for B12, the “Human primary T Cell Binding (FOI)” value in assay [2] came to 0.842 FOI. The binding result in assay [3] and in assay [4] was “no binding (tested: FOI >=10 = positive)” throughout.

B13: mAb 321 (antibody, V domains shown)
VH: QVQLVESGGGVVQPGRSLRLSCVASGFTFRSFGMHWVRQAPGKGLEWVVVISNDGSHKYYVESVKGRFTISRDNSKNTLYLQMNSLRPEDTAVYYCARRDYYGSGMDVWGKGTTVTVSS
VL: SYELTQPPSVSVSPGQTARITCSGDALPKKYAYWYQQKSGQAPVLVIYEDRKRPSGIPERFSGSSSGTMATLTISGAQVEDEADYYCYSTDSSGNHAVFGGGTQLTAL
notes: VH and VL only
Consider B13, for which, in assay [1], the binding result is “no binding (tested: FOI ≥10 = positive; 25 nM)”.

B14: mAb 322 (antibody, V domains shown)
VH: B13 VH with F32Y, P88A
VL: B13 VL
notes: VH and VL only
Turning to B14, the binding result in assay [1] is recorded as “no binding (tested: FOI ≥10 = positive; 25 nM)”.

B15: mAb 48 (antibody, V domains shown)
VH: QVQLVQSGAEVKKPGASVKVSCKASGYTFTGYYIHWVRQAPGQGLEWMGWINPKSGNRNYAQKFQGRVTMTRDTSIDTAYMELTRLRSDDTAVYYCARIEQLVFDYWGQGTLVTVSS
VL: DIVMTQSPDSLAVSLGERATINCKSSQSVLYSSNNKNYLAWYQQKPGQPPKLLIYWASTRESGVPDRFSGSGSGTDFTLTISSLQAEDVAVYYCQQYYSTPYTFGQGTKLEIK
As for B15, the “Human primary T Cell Binding (FOI)” value in assay [2] is 1.3 FOI. Moreover, the binding result in assay [3] and in assay [4] was “no binding (tested: FOI >=10 = positive)” each time.

B16: mAb 75 (antibody, V domains shown)
VH: QVQLVQSGAEVKKPGASVRVSCKASGYTFTGNYIHWVRLAPGQGLEWMGWINPKSGRTQFVQKFQGRVTMTRDTSITTVYMELSRLRSDDTAVYYCARLGDLLNFDYWGQGTLVTVSS
VL: not shown
Turning to B16, the “Human primary T Cell Binding (FOI)” value in assay [2] worked out at 0.694 FOI. The binding result in assay [3] and in assay [4] was “no binding (tested: FOI >=10 = positive)” throughout.

B17: mAb 320 (antibody, V domains shown)
VH: QVQLVESGGGVVQPGRSLRLSCAASGFTFRSYGMHWVRQAPGKGLEWVAIIWYDGSKKYYADSVKGRFTISRDNSKNILYLQMNSLRAEDTAVYYCARQEFNWNDGGYYYMDVWGKGTTVTVSS
VL: DIQLTQSPSFLSASVGDRVTITCRASQGISSYLDWCQQKPGKAPKLLIYAASTLQSGVPSRFSGSGSGTEFTLTISSLQPEDFATYYCQQLDNYPPTFGGGTKVEIK
notes: VH and VL only
Consider B17, for which the binding result in assay [1] is “no binding (tested: FOI ≥10 = positive; 25 nM)”.

B18: mAb 76 (antibody, V domains shown)
VH: QVHLVQSGAEVKKPGASVKVSCKASGHTFTGFYVHWARQAPGQGLEWMGWIYSNSGRTSYSQKFQGRVAMTRDTSISTIYMDLSRLRSDDTAVYYCARLEQLVFDFWGQGTLVTVSS
VL: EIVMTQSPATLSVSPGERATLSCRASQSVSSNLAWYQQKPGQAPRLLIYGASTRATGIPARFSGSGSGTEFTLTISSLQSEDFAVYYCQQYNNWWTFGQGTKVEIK
Take B18: in assay [2], the “Human primary T Cell Binding (FOI)” value was found to be 0.921 FOI. Besides, the binding result in assay [3] and in assay [4] was “no binding (tested: FOI >=10 = positive)” each time.

B19: mAb 88 (antibody, V domains shown)
VH: B18 VH with F32Y, S77N
VL: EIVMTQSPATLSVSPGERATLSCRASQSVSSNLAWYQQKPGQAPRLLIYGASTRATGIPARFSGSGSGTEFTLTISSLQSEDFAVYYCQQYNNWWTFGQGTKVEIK
As to B19, the “Human primary T Cell Binding (FOI)” value in assay [2] came out at 0.885 FOI. Besides, the binding result in assay [3] and in assay [4] was “no binding (tested: FOI >=10 = positive)” each time.

B20: mAb 45 (antibody, V domains shown)
VH: QAQLVQSGSELKKPGASVKVSCKASGYTFTKHSMNWVRQAPGQGLEWMGWINTNTGNPMYGQGFTGRFVFSLDTSMTTTYLQISSLKAEDTAIYYCAREGDYDLWRGFFNFDYWGQGTLVTVSS
VL: DIQMTQSPSSLSASVGDRVTITCRASQGIRNDLGWYQQKPGKAPKRLIYAASSLQSGVPSRFSGSGSGAEFTLTISSLQPEDFATYYCLQHNSYPRTFGQGTKVEIK
Consider B20, for which the “Human primary T Cell Binding (FOI)” value in assay [2] is 0.891 FOI. In addition, the binding result in assay [3] and in assay [4] was “no binding (tested: FOI >=10 = positive)” in each case.

B21: mAb 64 (antibody, V domains shown)
VH: QVQLMPSGAEVKEPGASVKVSCKASGYTFTGYYMHWVRQAPGQGLEWMGWINPNSGRTSYAKNFQGRVTMTRDTSISTAYMELSRLRSDDTAVYYCARIEQLVFDYWGQGTLVTVSS
VL: not shown
B21: the “Human primary T Cell Binding (FOI)” value in assay [2] amounted to 0.816 FOI. Also, the binding result in assay [3] and in assay [4] was “no binding (tested: FOI >=10 = positive)” throughout.
